Results reported in PMC3298758.
Where two headings read alike, the source gives them in different places. Ends that are not written are not given here.

Experiments:
Factor X [1] = test: SPR
[2] = biological target: Factor VIII light chain (A3C1C2 domains); test: ELISA
Factor X [3] = test: ELISA
Factor X [4] = test: cross-linking
Factor X [5] = test: cross-linking; remark: listed apart in the source
Factor X [6] = test: ELISA; remark: listed apart in the source
Factor X [7] = test: SPR; remark: listed apart in the source

Kd (Factor X [1]) [nM]	Molecule	other results
45.1	A3C1C2 subunit from FVIII variant Leu2015Ala (from UniProt P00451 1709-2351) (domain or fragment)	–
239	A3C1C2 subunit from FVIII variant Thr2012Ala/Leu2013Ala/Phe2014Ala (from UniProt P00451 1709-2351) (domain or fragment)	–
193	A3C1C2 subunit from FVIII variant Thr2012Ala/Phe2014Ala (from UniProt P00451 1709-2351) (domain or fragment)	–
59.5	A3C1C2 subunit from FVIII variant Met2010Ala (from UniProt P00451 1709-2351) (domain or fragment)	–
–	Factor X (natural protein)	Kd [2]: 89.9 nM; Ki [2]: 154 nM
–	active site-modified activated protein C (DEGR-APC) (enzyme)	Ki [2]: 82.7 nM
165	Factor VIII light chain (A3C1C2 domains) (domain or fragment)	Kd (Factor X [3]): 370 nM; stoichiometry N (Factor X [4]): 1
57	A3C1C2 subunit from recombinant wild type FVIII (from UniProt P00451 1709-2351) (domain or fragment)	–
59.4	A3C1C2 subunit from FVIII variant Ser2011Ala (from UniProt P00451 1709-2351) (domain or fragment)	–
104	A3C1C2 subunit from FVIII variant Phe2014Ala (from UniProt P00451 1709-2351) (domain or fragment)	–
55.7	A3C1C2 subunit from FVIII variant Val2016Ala (from UniProt P00451 1709-2351) (domain or fragment)	–
63.9	A3C1C2 subunit from FVIII variant Leu2013Ala (from UniProt P00451 1709-2351) (domain or fragment)	–
85.8	A3C1C2 subunit from FVIII variant Thr2012Ala (from UniProt P00451 1709-2351) (domain or fragment)	–
–	HAGMSTLFLV (also: biotinylated, position not given here) [biotinylated 2007-2016 peptide]	stoichiometry N (Factor X [5]): 1
–	HAGMSTLFLV [synthetic peptide corresponding to FVIII A3 residues 2007-2016]	Ki (Factor X [6]): 152000 nM; percent inhibition of FVIII LC binding to FX at 800 μM peptide (Factor X [6]): 80%; Kd (Factor X [7]): 7700 nM
